T1: mCherry-tagged WIPI1 (UniProt Q5MNZ9 1-446)
T1 construct: WIPI1; called purified WIPI1-4 in the results
T1 sequence (looked up): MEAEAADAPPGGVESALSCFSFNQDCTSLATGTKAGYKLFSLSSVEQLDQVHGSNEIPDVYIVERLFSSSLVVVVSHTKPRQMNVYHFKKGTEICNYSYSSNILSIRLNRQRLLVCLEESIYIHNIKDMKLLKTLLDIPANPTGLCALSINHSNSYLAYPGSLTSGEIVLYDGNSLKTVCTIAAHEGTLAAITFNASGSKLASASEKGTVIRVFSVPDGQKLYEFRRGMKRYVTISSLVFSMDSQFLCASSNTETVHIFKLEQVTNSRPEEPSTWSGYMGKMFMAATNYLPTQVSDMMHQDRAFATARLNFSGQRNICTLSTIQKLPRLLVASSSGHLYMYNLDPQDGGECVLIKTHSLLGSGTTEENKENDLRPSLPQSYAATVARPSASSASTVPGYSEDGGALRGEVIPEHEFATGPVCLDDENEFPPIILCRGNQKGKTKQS


Legend:
Conditions in all cases: both partners purified
GST-WIPI3 = GST-WIPI3 (UniProt Q5MNZ6 1-344); assay: microscopy-based bead assay; GST-tagged bait on Glutathione Sepharose 4B beads, GFP- or mCherry-tagged prey in solution, confocal imaging
mCherry-WIPI3 = target: T2, mCherry-WIPI3 (UniProt Q5MNZ6 1-344); assay: microscopy-based bead assay; GFP-tagged bait on GFP-trap agarose beads, mCherry-tagged prey in solution, confocal imaging
T2 construct: 6xHis-TEV-mCherry tag; also called mCherry-tagged WIPI3; source: E. coli Rosetta pLysS, purified; not shown: mCherry, N-terminal, kept

mCherry-tagged WIPI1 = target: T1, mCherry-tagged WIPI1; assay: microscopy-based bead assay; GST-tagged bait on Glutathione Sepharose 4B beads, GFP- or mCherry-tagged prey in solution, confocal imaging

Binder | binding result (mCherry-WIPI3) | other results
mCherry-tagged ATG13 IDR (191–517 aa) (domain or fragment, UniProt O75143 191-517, looked up, also called mCh-IDR; source: E. coli Rosetta pLysS, purified; not shown: mCherry, N-terminal, kept) INLAFMSTRQFERTPPIMGIIIDHFVDRPYPSSSPMHPCNYRTAGEDTGVIYPSVEDSQEVCTTSFSTSPPSQLSSSRLSYQPAALGVGSADLAYPVVFAAGLNATHPHQLMVPGKEGGVPLAPNQPVHGTQADQERLATCTPSDRTHCAATPSSSEDTETVSNSSEGRASPHDVLETIFVRKVGAFVNKPINQVTLTSLDIPFAMFAPKNLELEDTDPMVNPPDSPETESPLQGSLHSDGSSGGSSGNTHDDFVMIDFKPAFSKDDILPMDLGTFYREFQNPPQLSSLSIDIGAQSMAEDLDSLPEKLAVHEKNVREFDAFVETLQ |  | binding result (GST-WIPI3): binds
GFP-tagged ATG13 IDR (191–517 aa) (domain or fragment, UniProt O75143 191-517, looked up, also called full IDR; full-length IDR; source: E. coli Rosetta pLysS, purified; not shown: EGFP, N-terminal, kept) INLAFMSTRQFERTPPIMGIIIDHFVDRPYPSSSPMHPCNYRTAGEDTGVIYPSVEDSQEVCTTSFSTSPPSQLSSSRLSYQPAALGVGSADLAYPVVFAAGLNATHPHQLMVPGKEGGVPLAPNQPVHGTQADQERLATCTPSDRTHCAATPSSSEDTETVSNSSEGRASPHDVLETIFVRKVGAFVNKPINQVTLTSLDIPFAMFAPKNLELEDTDPMVNPPDSPETESPLQGSLHSDGSSGGSSGNTHDDFVMIDFKPAFSKDDILPMDLGTFYREFQNPPQLSSLSIDIGAQSMAEDLDSLPEKLAVHEKNVREFDAFVETLQ | binds | 
NIX(1–182)-GST (domain or fragment, NIX (BNIP3L), human, cytosol-exposed domain, residues 1-182; transmembrane domain replaced by GST; also called NIX-GST; GST-tagged NIX; source: E. coli Rosetta pLysS, purified; not shown: GST, C-terminal, kept) not shown |  | binding result (mCherry-tagged WIPI1): binds
PIMGIIIDHFVDRPYPSSSPMHPCN (peptide, UniProt O75143 206-230, looked up, ATG13, residues 206-230; Addgene number by the order of printing; also called ATG13 IDR fragment residues 206–230; source: E. coli Rosetta pLysS, purified; not shown: EGFP, N-terminal, kept) [GFP-tagged ATG13 (206–230 aa)] | binds | 
INLAFMSTRQFERTPPIMGIIIDHFVDRPYPSSSPMHPCN (peptide, UniProt O75143 191-230, looked up, Addgene number by the order of printing; source: E. coli Rosetta pLysS, purified; not shown: EGFP, N-terminal, kept) [GFP-tagged ATG13 (191–230 aa)] | binds | 
GFP-tagged ATG13 IDR Δ191–205 (205–517 aa) (domain or fragment, UniProt O75143 205-517, looked up, Addgene number by the order of printing; source: E. coli Rosetta pLysS, purified; not shown: EGFP, N-terminal, kept) PPIMGIIIDHFVDRPYPSSSPMHPCNYRTAGEDTGVIYPSVEDSQEVCTTSFSTSPPSQLSSSRLSYQPAALGVGSADLAYPVVFAAGLNATHPHQLMVPGKEGGVPLAPNQPVHGTQADQERLATCTPSDRTHCAATPSSSEDTETVSNSSEGRASPHDVLETIFVRKVGAFVNKPINQVTLTSLDIPFAMFAPKNLELEDTDPMVNPPDSPETESPLQGSLHSDGSSGGSSGNTHDDFVMIDFKPAFSKDDILPMDLGTFYREFQNPPQLSSLSIDIGAQSMAEDLDSLPEKLAVHEKNVREFDAFVETLQ | binds | 

From publication PMC12339401 (Nature Cell Biology, 2025)
